According to PMC7755396 (eLife, 2020):

Experiments:
Settings in all cases: both partners purified
[1] = biological target: Puumala virus (PUUV) Gc ectodomain, residues 659–1105 (Puumala orthohantavirus, GPC of GenBank …, UniProt Q9WJ31); assay: crystal structure
[2] = biological target: T1, Puumala virus (Gn−Gc)4 glycoprotein spike on virus-like particles (Puumala orthohantavirus, strain …, UniProt P27312); assay: cryo-EM structure
T1 construct: copies: 4 + 4

[3] = biological target: T2, Puumala virus Gc as displayed on virus-like particles (Puumala orthohantavirus); assay: cryo-EM structure
T2 chain: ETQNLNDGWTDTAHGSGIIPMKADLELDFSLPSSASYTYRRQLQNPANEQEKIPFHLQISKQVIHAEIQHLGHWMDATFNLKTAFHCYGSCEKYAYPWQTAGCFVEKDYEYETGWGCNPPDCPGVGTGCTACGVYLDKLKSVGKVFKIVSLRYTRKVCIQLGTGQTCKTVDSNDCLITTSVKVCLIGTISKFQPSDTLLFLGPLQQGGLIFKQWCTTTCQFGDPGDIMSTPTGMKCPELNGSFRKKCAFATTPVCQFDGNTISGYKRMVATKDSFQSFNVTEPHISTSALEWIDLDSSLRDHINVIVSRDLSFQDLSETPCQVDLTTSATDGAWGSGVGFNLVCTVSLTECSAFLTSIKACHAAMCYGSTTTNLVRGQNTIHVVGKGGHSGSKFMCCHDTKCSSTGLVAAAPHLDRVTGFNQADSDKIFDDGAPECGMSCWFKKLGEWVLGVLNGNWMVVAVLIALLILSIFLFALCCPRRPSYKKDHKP

Measured: binding result

B1: Fab P-4G2 (antigen-binding fragment of mAb P-4G2) (Fab, V domains shown)
VH: QVQMKESGGGLVQPGKSLKLSCAASGFTFSDFWMSWVRQPSGKGLEWVARINTNGDTTHYTDDMKGRFTISRDNAKTTLYLEMSPLKSEDTAMYYCTRDRLGPFDYWGQGTTVTVSS
VL: DIVMTQSPAFPPVSLGDTVTITCQASQSVYKNLAWYQQKPGKSPRLLIFGMSSLADGVPSRFSASGSDKQYSLKIRGLQPEDAAIYYCQQHYIAPYTFGAGTRLEIK
notes: also called Fab 4G2
binds: [1] | [2] | [3]
